The text below walks through data of patent publication US11994512B2, “Single-cell genomic methods to generate ex vivo cell systems that recapitulate in vivo biology with improved fidelity” (Massachusetts Institute of Technology, priority 2018, dated 2024).

B1: Q9CXS4 (protein, UniProt Q9CXS4 1-252, looked up)
chain: MRRTRSAVATGPREQRRSGATGGLSGGESRAQRSRSRTRAGAGGGGGAVGPQPSAKPRPKPPPRAQEAAAEEPPPAVTPAASVSALDLGEQRERWETFQKRQRLSFEGAAKLLLDTFEYQGLVKHTGGCHCGAVRFEVWASADLHIFDCNCSICKKKQNRHFIVPASRFKLLKGAESITTYTFNTHKAQHTFCKRCGVQSFYTPRSNPGGFGIAPHCLDEGTVRSVVTEEFNGSDWERAMKEHKTIKNMSKE
modifications: full-length
B2: Q9CXC3 (protein, UniProt Q9CXC3 1-338, looked up)
chain: MKLPLTFCRLLSRLNRFSVKASPPVSFSTFSYLCSQKKKNSYEAVDQAKYSRLVRSVLSRGPAQTPESLFKEDDVLYGPVSKHKAAEPEPQARVPQHCFPIFNEERTGKPHTDASSSPLKIPLQRNSIPSVTRILQQTMPPEQSFFLERWKERMVLELGEDGFAEYTSNVFLQGKQFHKALESILSPQENLTGGEEHPQCGYIESIQHILTEISGVQALESAVQHEALKYVGLLDCVAEYRGKLCVIDWKTSEKPKPLIRNTYDNPLQVVAYMGAVNHDAHYSFQVQCGLIVVAYKDGSPAHPHFMDEELCSKYWAKWLLRLEEYTEKQKNLSAPEPA
modifications: full-length
B3: Q99LD8 (protein, UniProt Q99LD8 1-285, looked up)
chain: MGTPGEGLGRCSHALIRGVPESLASGEGAGAGLPALDLAKAQREHGVLGGKLRQRLGLQLLELPPEESLPLGPLLGDTAVIQGDTALITRPWSPARRPEVDGVRKALQDLGLRIVEMGDENATLDGTDVLFTGREFFVGLSKWTNHRGAEIVADTFRDFAVSTVPVSGSSHLRGLCGMGGPRTVVAGSSEAAQKAVRAMAALTDHPYASLTLPDDAASDCLFLRPGLPGATPFLLHRGGGDLPNSQEALQKLSDVTLVPVSCSELEKAGAGLSSLCLVLSTRPHC
modifications: full-length
B4: Q9CPY1 (protein, UniProt Q9CPY1 1-128, looked up)
chain: MAGSVPWAASRRLWGWVPSACRSFSLGVPRLAFVRLTLPPPKVVDRWNEKRALFGVYDNIGILGNFEKHPKELIKGPVWLRGWRGNELQRCVRKKKFVGNRMFIEDLHNLNKRISYLYKHFNRHGKYR
modifications: full-length
B5: Q9CWY4 (protein, UniProt Q9CWY4 1-129, looked up)
chain: MQSPLTIPVPVPVLRLPRGPDGFSRGFASDGRRTILRPEVGEGHIQDPPESQEQRARATLRERYLRSLLAMVGHPVSFTLHEGVHVTAQFGATDLDVANFYVSQLQTPIGVQAEALLRCSDIISYSFKL
modifications: full-length
B6: Q9CQU5 (protein, UniProt Q9CQU5 1-252, looked up)
chain: MADAEKNAVAEKNNAVATKEVLAEAAAILEPVGLQEEAELPAKIMEEFMRNSRKKDKLLCSQLQVVNFLQTFLAQEDTEQSPDALASEDASRQKATETKEQWKDMKATYMDHVDVIKCALSEALPQVKEAHRKYTELQKAFEQLEAKKRVLEEKLQLAQKQWVLQQKRLQNLTKISAEVKRRRKRALEKLDGSHQELETLKQQAGQEQEKLQRNQSYLQLLCSLQNKLVISEGKAEDKDVKGRALTAKSKSP
modifications: full-length
B7: Q9CVI2 (protein, UniProt Q9CVI2 1-245, looked up)
chain: MGKRDNRVAYMNPIAMARSRGPIQSSGPTIQDYLNRPRPTWEEVKEQLEKKKKGSKALAEFEEKMNENWKKELEKHREKLLSGNESSSKKRQKKKKEKKKSGRYSSSSSSSSDSSSSSSDSEDEDKKQTKRRKKKKSRCHKSPESSGSDSASDSKDGSKKKKKSKDVTEREKDTKGLSKKRKMYEDKPLSSESLSESDCGEVQAKRKKSGEERERTTDKAKKRRKHKKHSKKKKKKAASSSSDSP
modifications: full-length
B8: Q9CZT6 (protein, UniProt Q9CZT6 1-276, looked up)
chain: MADDLGDEWWENQPAAASSPEQSGGEEGGDTEMTQQDTAPVPEKTQQPTECFLTQTKEPKAEDSRKTRKWKKKKISDILAKSEPKPGTPEDLQKLIRDHYSSSRSVIELEELHLPDSCFLKANDLTHSLSSYLKEICPKWVKLRKTHNEKKSVLMLILCSSAVRALELIRSLTAFKGDAKVMKLFAKHIKVQEQVKLLEKRVIHLGVGTPGRIKELVKQDGLHLNPLKFLVFDWNWRDQKLRRMMDIPEIRKEVFELLDMGVFSLCKSDSLKLGLF
modifications: full-length
B9: Q99M01 (protein, UniProt Q99M01 1-451, looked up)
chain: MVCLALVRAAYEHIYLVRKVSHACRCHQHRAWSSKPAASQSAVQGAPGSVLEILGKSYPQDDHTNLTQKVLSKVGRNLHNQKFHPLWLIKERVKEHFYQQYMVRSRTPLFSVYDQLPPVVTTWQNFDSLLIPADHPSRKKGDNYYLNRAHMLRAHTSAHQWDLLHAGLNAFLVVGDVYRRDQIDCQHYPVFHQLEGVRLFSKHELFAGVKDGESLQLFEEGSRSAHKQETHTMEAVKLVEFDLKQVLTRLVTHLFGDGLEVRWVDCYFPFTHPSFEMEINFRGEWLEVLGCGVMEQQLVNSAGAQDRIGWAFGLGLERLAMVLYDIPDIRLFWSEDERFLKQFLLSDINQSVKFQPLSKYPAVFNDISFWLPSENYTENDFYDIVRTVGGDLVEKVDLIDKFEHPKTHRTSHCYRITYRHMERTLSQREVGNVHQAVQEAAVQLLGVEGRF
modifications: full-length
B10: Q99LZ3 (protein, UniProt Q99LZ3 1-223, looked up)
chain: MTEVLDLHGQDSDGGSEEMVLTPAELIEKLEQAWMNEKFAPELLESKAEIVECVMEQLEHMEENLRRAKKGDLKVSIHRMEMERIRYVLSSYLRCRLMKIEKFFPHILEKEKVRSEGEPSSLSPEEFVFAKEYMDHTETHFKNVALKHMPPNLQKVDLLRAVPKPDLDSYVFLRVKERQENILVEPEADEQRDYVIDLEVGSQHLIRYKTIAPLVASGAVQLI
modifications: full-length
B11: Q99M54 (protein, UniProt Q99M54 1-266, looked up)
chain: MGSTQSVSGTPARPLPRNKQVARVADPRSPSAGIQRTPIQVESSPQPSLPAEQLNGLKQAQDPDPRSPTLGIARTPMKISGPDPQCSLVKELSEVLETEASESISSPELALPRETPLFYDLDLSSDPQLSPEDQLLPWSQAELDPKQVFTKEEAKQSAETIAASQNSDKPSRDPETPQSSGSKRSRRKANSKVLGRSPLTILQDDNSPGTLTLRQGKRPSALSENVKDLKEGVVLGTGRFLKAGGGAREPNQDHDKENQHFALLES
modifications: full-length
B12: Q99PG0 (protein, UniProt Q99PG0 1-398, looked up)
chain: MGKTISLLISVVLVAYYLYIPLPDAIEEPWKVVWETAFVKIGTDLASFGELLGISHFMETIQLLMSFQEVPPTSDEHVTVMETAFDSVPVRIYIPKRKSMALRRGLFYIHGGGWCLGSAAHFSYDTLSRWTAHKLDAVVVSTDYGLAPKHHFPRQFEDVYRSLRWFLQEDVLEKYGVDPRRVGVSGDSAGGNLAAAVTQQLIQDPDVKIKLKVQALIYPALQALDTNVPSQQEGSHFPVLTRSLMVRFWSEYFTTDRGLEKAMLLNQHVPMESSHLLQFVNWSSLLPERYKKSPVYKNPTPGSSELAQKYPGFIDVKACPLLANDNILHHLPKTYIITCQYDVLRDDGLMYVKRLQNVGVHVTHHHVEDGFHGTFSFPGLKLSERMKNQYLSWLIKNL
modifications: full-length

The subject of one assay is intracellular proteome of ENR+CD and ENR organoids. Briefly: LC-MS/MS TMT proteomics of ENR+CD versus ENR organoids. In kind it is cell-based, C57BL/6 mice. Particulars: ENR+CD versus ENR organoids, sample pairs in aggregate (n=4, 2 technical replicates from two biological donors).
On to B1, for which the “Average logFC” value is given as −1.1404.

As to B2, the “Average logFC” value is on record as −1.487.

Consider B3, for which the “Average logFC” value is on record as 1.289.

Turning to B4, the “Average logFC” value is listed as −1.278.

As for B5, the “Average logFC” value is recorded as −1.168.

As to B6, the “Average logFC” value is −1.13.

Consider B7, for which the “Average logFC” value was −1.186.

Turning to B8, the “Average logFC” value is −1.131.

With B9, the “Average logFC” value is −1.171.

With B10, the “Average logFC” value was −1.212.

Still in this assay, the particulars now being: protein abundance ratio ENR+CD versus ENR organoids, sample pair M1-1; LC-MS/MS TMT proteomics.
In the case of B1, the “M1-1 Log2 Median Normalized” value is reported as −1.106.

For the molecule B2, the “M1-1 Log2 Median Normalized” value was −1.486.

Take B3: the “M1-1 Log2 Median Normalized” value stood at 1.314.

B4: the “M1-1 Log2 Median Normalized” value is on record as −0.801.

Take B11: the “M1-1 Log2 Median Normalized” value was −1.383.

For B5, the “M1-1 Log2 Median Normalized” value is −0.742.

Regarding B6, the “M1-1 Log2 Median Normalized” value is −1.159.

B12: the “M1-1 Log2 Median Normalized” value is listed as −1.606.

Take B7: the “M1-1 Log2 Median Normalized” value is given as −1.385.

For B8, the “M1-1 Log2 Median Normalized” value is −1.275.

As to B9, the “M1-1 Log2 Median Normalized” value is reported as −0.869.

B10: the “M1-1 Log2 Median Normalized” value is recorded as −1.61.

The same assay, now with this note: protein abundance ratio ENR+CD versus ENR organoids, sample pair M1-2; LC-MS/MS TMT proteomics.
Regarding B1, the “M1-2 Log2 Median Normalized” value was −1.141.

Consider B2, for which the “M1-2 Log2 Median Normalized” value was −0.854.

Turning to B3, the “M1-2 Log2 Median Normalized” value stood at 1.577.

For B4, the “M1-2 Log2 Median Normalized” value is recorded as −0.766.

Consider B11, for which the “M1-2 Log2 Median Normalized” value is listed as −1.488.

As for B5, the “M1-2 Log2 Median Normalized” value was −0.855.

Regarding B6, the “M1-2 Log2 Median Normalized” value was −0.699.

Take B12: the “M1-2 Log2 Median Normalized” value is listed as −1.392.

Turning to B7, the “M1-2 Log2 Median Normalized” value is listed as −1.072.

As to B8, the “M1-2 Log2 Median Normalized” value is −0.965.

For the molecule B9, the “M1-2 Log2 Median Normalized” value is −0.578.

For B10, the “M1-2 Log2 Median Normalized” value was −1.013.

Staying with this assay, now noted: protein abundance ratio ENR+CD versus ENR organoids, sample pair M2-1; LC-MS/MS TMT proteomics.
Take B1: the “M2-1 Log2 Median Normalized” value is −0.9445.

Take B2: the “M2-1 Log2 Median Normalized” value was −1.7905.

Take B3: the “M2-1 Log2 Median Normalized” value amounted to 1.1265.

For B4, the “M2-1 Log2 Median Normalized” value is −2.0015.

Take B11: the “M2-1 Log2 Median Normalized” value is reported as −0.4185.

In the case of B5, the “M2-1 Log2 Median Normalized” value was −1.6895.

Take B6: the “M2-1 Log2 Median Normalized” value is on record as −1.1625.

With B12, the “M2-1 Log2 Median Normalized” value is −2.1105.

In the case of B7, the “M2-1 Log2 Median Normalized” value is −1.0115.

Turning to B8, the “M2-1 Log2 Median Normalized” value was −0.8705.

With B9, the “M2-1 Log2 Median Normalized” value was −1.7495.

For the molecule B10, the “M2-1 Log2 Median Normalized” value is −0.7435.

Still in this assay, the particulars now being: protein abundance ratio ENR+CD versus ENR organoids, sample pair M2-2; LC-MS/MS TMT proteomics.
Turning to B1, the “M2-2 Log2 Median Normalized” value was −1.649.

For B2, the “M2-2 Log2 Median Normalized” value is on record as −1.7.

B3: the “M2-2 Log2 Median Normalized” value is listed as 1.14.

Take B4: the “M2-2 Log2 Median Normalized” value is −1.543.

In the case of B11, the “M2-2 Log2 Median Normalized” value was −1.548.

B5: the “M2-2 Log2 Median Normalized” value was −1.387.

In the case of B6, the “M2-2 Log2 Median Normalized” value is −1.13.

As for B12, the “M2-2 Log2 Median Normalized” value is listed as −1.558.

Turning to B7, the “M2-2 Log2 Median Normalized” value is reported as −1.275.

On to B8, for which the “M2-2 Log2 Median Normalized” value is −1.413.

B9: the “M2-2 Log2 Median Normalized” value was −1.486.

Take B10: the “M2-2 Log2 Median Normalized” value is reported as −1.481.

The assay is the same for the next values; noted with them: up = enriched in ENR+CD, down = enriched in ENR; FDR<0.05 and log fold change cut-off.
With B1, the change entry is recorded as “down”.

On to B2, for which the change result is recorded as “down”.

For B3, the change entry was “up”.

As for B4, the change entry is reported as “down”.

As for B11, the change entry is recorded as “down”.

For the molecule B5, the change result is recorded as “down”.

B6: the change result is recorded as “down”.

B12: the change entry is “down”.

Take B7: the change result is on record as “down”.

B8: the change result is on record as “down”.

On to B9, for which the change result is on record as “down”.

In the case of B10, the change result is reported as “down”.
